The source of these data is doi:10.1101/2022.12.02.518935.

The test deals with Biotinylated AF546-labeled BtuF (BtuF*), construct of the smFRET-Q experiments (E. coli). As to the kind of experiment: smFRET-Q.

Sequence of Wild type BtuCD reconstituted in nanodiscs (P06609 whole entry): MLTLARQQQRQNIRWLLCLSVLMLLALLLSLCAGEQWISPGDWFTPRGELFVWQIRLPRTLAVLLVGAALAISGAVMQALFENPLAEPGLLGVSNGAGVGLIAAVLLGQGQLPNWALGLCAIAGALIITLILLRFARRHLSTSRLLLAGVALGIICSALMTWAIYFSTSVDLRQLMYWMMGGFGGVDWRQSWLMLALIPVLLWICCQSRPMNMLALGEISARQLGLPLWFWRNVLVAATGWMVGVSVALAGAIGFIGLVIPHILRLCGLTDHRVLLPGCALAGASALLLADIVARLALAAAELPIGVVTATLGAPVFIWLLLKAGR
Sequence of Wild type BtuCD reconstituted in nanodiscs (P06611 whole entry): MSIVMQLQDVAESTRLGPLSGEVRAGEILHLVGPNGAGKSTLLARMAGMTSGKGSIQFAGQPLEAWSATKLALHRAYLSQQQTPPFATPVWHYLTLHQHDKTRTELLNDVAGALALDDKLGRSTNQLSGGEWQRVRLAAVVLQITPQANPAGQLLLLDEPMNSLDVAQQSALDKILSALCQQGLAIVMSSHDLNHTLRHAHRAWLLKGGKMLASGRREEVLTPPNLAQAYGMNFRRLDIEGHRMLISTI

The substance “Wild type BtuCD reconstituted in nanodiscs (from UniProt P06609 1-326; P06611 1-249) (complex)” displayed an occupancy time of the H state (locked BtuCD-F* complex) with 0.5 mM Mg-ATP of 1 s.
